Test results: patent US9988424 (DUKE UNIVERSITY, dated 2018)
Like-named read-outs stand apart in the source and are kept apart here.

What was measured:
Test in all cases: ELISA, OD405 at 10 ug/ml
D.9009SA V1/V2 tags [1] = biological target: D.9009SA V1/V2 tags
D.9009SA V1/V2 tags [2] = biological target: D.9009SA V1/V2 tags; remark: listed apart in the source
B.040 gp140C = biological target: B.040 gp140C
J08 B.HXB2/BALV1V2 = biological target: T1, J08 B.HXB2/BALV1V2 (HIV-1)
T1 construct: also called J08 B.HXB/BAL V1V2
T1 chain: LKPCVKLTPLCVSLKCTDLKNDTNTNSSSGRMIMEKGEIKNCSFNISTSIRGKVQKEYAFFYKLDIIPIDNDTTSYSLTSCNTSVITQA

gp70 B.CaseA2 V1/V2 = biological target: T2, gp70 B.CaseA2 V1/V2 (HIV-1 V1V2 on murine leukemia virus gp70)
T2 construct: also called B.gp70CaseA2 V1/V2; gp70 B.CaseAV1V2
T2 chain: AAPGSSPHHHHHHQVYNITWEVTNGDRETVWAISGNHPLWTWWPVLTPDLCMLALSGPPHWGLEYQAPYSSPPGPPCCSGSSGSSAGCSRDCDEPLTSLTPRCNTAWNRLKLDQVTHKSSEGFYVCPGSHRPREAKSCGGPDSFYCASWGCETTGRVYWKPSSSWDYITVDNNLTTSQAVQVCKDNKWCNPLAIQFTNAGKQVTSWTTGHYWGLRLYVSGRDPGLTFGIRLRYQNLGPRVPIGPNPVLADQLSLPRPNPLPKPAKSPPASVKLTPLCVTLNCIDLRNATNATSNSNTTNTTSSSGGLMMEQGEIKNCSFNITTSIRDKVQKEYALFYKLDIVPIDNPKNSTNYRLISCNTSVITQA

B.con gp140CF = biological target: B.con gp140CF
SIV CPZ US-1 gp140CF = biological target: T3, SIV CPZ US-1 gp140CF (SIVcpz)
T3 construct: also called US-1 SIVCPZ gp140CF
T3 chain: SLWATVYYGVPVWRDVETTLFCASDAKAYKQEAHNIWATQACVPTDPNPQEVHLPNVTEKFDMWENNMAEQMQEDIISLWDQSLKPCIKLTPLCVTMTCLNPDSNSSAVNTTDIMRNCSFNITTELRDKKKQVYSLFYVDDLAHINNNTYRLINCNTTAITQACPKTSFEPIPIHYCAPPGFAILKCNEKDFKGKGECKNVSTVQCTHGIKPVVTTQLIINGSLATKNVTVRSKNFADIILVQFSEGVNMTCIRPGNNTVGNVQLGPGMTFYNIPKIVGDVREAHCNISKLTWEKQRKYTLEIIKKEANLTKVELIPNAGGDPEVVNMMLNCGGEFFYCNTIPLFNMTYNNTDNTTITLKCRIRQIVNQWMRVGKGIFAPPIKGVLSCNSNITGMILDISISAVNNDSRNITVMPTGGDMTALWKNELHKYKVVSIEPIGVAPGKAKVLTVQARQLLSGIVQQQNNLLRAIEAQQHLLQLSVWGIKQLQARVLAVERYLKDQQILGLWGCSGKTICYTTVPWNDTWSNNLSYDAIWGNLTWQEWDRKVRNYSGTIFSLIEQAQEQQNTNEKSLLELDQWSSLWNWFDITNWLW

C.1086 V1V2 Tags = C.1086 V1V2 Tags (HIV-1)

Measured: binding result

B1: 697D (antibody, V domains shown)
VH: QVQLVQSGAEVKKPGSSVKVSCKASGGNFNTYTISWVRQAPGQGLEWMGRIIPIFGIVNPAQKFPGRVTINVDKSTNTAYMELSSLRSEDTAVYYCATSGVGLHFGYFDYWGQGTQVTVSS
VL: QSVLTQPPSVSGAPGQRVTISCTGSSSNIGAHYDVHWYQQLPGTAPKLLIYGNSNRPSGVPDRFSGSKSGTSASLAITGLQAEDEADYYCQSYDSSLSGYVFGTGTKVTVL
notes: also called mAb 697D; V2 conformational mAb 697D
no binding (tested: 10 ug/ml): D.9009SA V1/V2 tags [1]

B2: PG16 (antibody, V domains shown)
VH: QEQLVESGGGVVQPGGSLRLSCLASGFTFHKYGMHWVRQAPGKGLEWVALISDDGMRKYHSDSMWGRVTISRDNSKNTLYLQFSSLKVEDTAMFFCAREAGGPIWHDDVKYYDFNDGYYNYHYMDVWGKGTTVTVSS
VL: QSALTQPASVSGSPGQTITISCNGTSSDVGGFDSVSWYQQSPGKAPKVMVFDVSHRPSGISNRFSGSKSGNTASLTISGLHIEDEGDYFCSSLTDRSHRIFGGGTKVTVL
notes: also called mAb PG16; bnAb PG16
no binding (tested: 10 ug/ml): D.9009SA V1/V2 tags [2] | B.040 gp140C | J08 B.HXB2/BALV1V2 | gp70 B.CaseA2 V1/V2 | B.con gp140CF | SIV CPZ US-1 gp140CF | C.1086 V1V2 Tags
